According to ChEMBL document CHEMBL4321793, “Can Cysteine Protease Cross-Class Inhibitors Achieve Selectivity?” (J Med Chem, 2019):

B1: Cruzipain (Trypanosoma cruzi), P25779 (protein)
chain: MSGWARALLLAAVLVVMACLVPAATASLHAEETLTSQFAEFKQKHGRVYESAAEEAFRLSVFRENLFLARLHAAANPHATFGVTPFSDLTREEFRSRYHNGAAHFAAAQERARVPVKVEVVGAPAAVDWRARGAVTAVKDQGQCGSCWAFSAIGNVECQWFLAGHPLTNLSEQMLVSCDKTDSGCSGGLMNNAFEWIVQENNGAVYTEDSYPYASGEGISPPCTTSGHTVGATITGHVELPQDEAQIAAWLAVNGPVAVAVDASSWMTYTGGVMTSCVSEQLDHGVLLVGYNDSAAVPYWIIKNSWTTQWGEEGYIRIAKGSNQCLVKEEASSAVVGGPGPTPEPTTTTTTSAPGPSPSYFVQMSCTDAACIVGCENVTLPTGQCLLTTSGVSAIVTCGAETLTEEVFLTSTHCSGPSVRSSVPLNKCNRLLRGSVEFFCGSSSSGRLADVDRQRRHQPYHSRHRRL
B2: Procathepsin L (Homo sapiens) (protein)
chain: MNPTLILAAFCLGIASATLTFDHSLEAQWTKWKAMHNRLYGMNEEGWRRAVWEKNMKMIELHNQEYREGKHSFTMAMNAFGDMTSEEFRQVMNGFQNRKPRKGKVFQEPLFYEAPRSVDWREKGYVTPVKNQGQCGSCWAFSATGALEGQMFRKTGRLISLSEQNLVDCSGPQGNEGCNGGLMDYAFQYVQDNGGLDSEESYPYEATEESCKYNPKYSVANDTGFVDIPKQEKALMKAVATVGPISVAIDAGHESFLFYKEGIYFEPDCSSEDMDHGVLVVGYGFESTESDNNKYWLVKNSWGEEWGMGGYVKMAKDRRNHCGIASAASYPTV

Key:
[1] = compound: N=C(N)NCCC[C@H](NC(=O)OCc1ccccc1)C(=O)N[C@@H](CCCNC(=N)N)C(=O)Nc1ccc2ccc(=O)oc2c1; assay: (§1) Inhibition of Trypanosoma cruzi cruzipain assessed as ratio of Kcat/Km using Z-Phe-Arg-MCA as substrate by spectrofluorometric method
[2] = compound: N=C(N)NCCC[C@H](NC(=O)[C@H](Cc1ccc(NC(=N)N)cc1)NC(=O)OCc1ccccc1)C(=O)Nc1ccc2ccc(=O)oc2c1; assay: as §1
[3] = compound: N=C(N)NCCC[C@H](NC(=O)[C@H](Cc1ccccc1)NC(=O)OCc1ccccc1)C(=O)Nc1ccc2ccc(=O)oc2c1; assay: as §1
[4] = compound: N=C(N)NCCC[C@H](NC(=O)[C@H](Cc1ccncc1)NC(=O)OCc1ccccc1)C(=O)Nc1ccc2ccc(=O)oc2c1; assay: as §1
[5] = substrate: N=C(N)NCCC[C@H](NC(=O)OCc1ccccc1)C(=O)N[C@@H](CCCNC(=N)N)C(=O)Nc1ccc2ccc(=O)oc2c1; assay: (§2) Inhibition of human cathepsin L assessed as ratio of Kcat/Km using Z-Phe-Arg-MCA as substrate by spectrofluorometric method
[6] = substrate: N=C(N)NCCC[C@H](NC(=O)[C@H](Cc1ccc(NC(=N)N)cc1)NC(=O)OCc1ccccc1)C(=O)Nc1ccc2ccc(=O)oc2c1; assay: as §2
[7] = substrate: N=C(N)NCCC[C@H](NC(=O)[C@H](Cc1ccccc1)NC(=O)OCc1ccccc1)C(=O)Nc1ccc2ccc(=O)oc2c1; assay: as §2
[8] = substrate: N=C(N)NCCC[C@H](NC(=O)[C@H](Cc1ccncc1)NC(=O)OCc1ccccc1)C(=O)Nc1ccc2ccc(=O)oc2c1; assay: as §2

Protein | kcat/Km [1] | kcat/Km [2] | kcat/Km [3] | kcat/Km [4] | kcat/Km [5] | kcat/Km [6] | kcat/Km [7] | kcat/Km [8]
B1 | 395000 M⁻¹ s⁻¹ | 1.1e+06 M⁻¹ s⁻¹ | 9.67e+06 M⁻¹ s⁻¹ | 6.95e+06 M⁻¹ s⁻¹ | – | – | – | –
B2 | – | – | – | – | 37000 M⁻¹ s⁻¹ | 438000 M⁻¹ s⁻¹ | 9.46e+06 M⁻¹ s⁻¹ | 818000 M⁻¹ s⁻¹
